From patent US20200247855A1 (published 2020)

Legend:
Assay in all cases: BLI
CXCL8_HUMAN = CXCL8_HUMAN (human, UniProt P10145 28-99)
CXCL5 = biological target: CXCL5
CXCL2 = biological target: CXCL2
CXCL6 = biological target: CXCL6
CXCL4 = biological target: CXCL4
CXCL10_HUMAN = CXCL10_HUMAN (human, UniProt P02778 22-98)
CXCL11_HUMAN = biological target: T1, CXCL11_HUMAN (human, UniProt O14625 22-94)
T1 chain: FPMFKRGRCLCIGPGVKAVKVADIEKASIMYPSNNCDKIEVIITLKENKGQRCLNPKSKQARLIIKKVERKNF

CXCL13 = biological target: CXCL13
CXCL1_HUMAN = CXCL1_HUMAN (human, UniProt P09341 35-107)
CXCL3_HUMAN = CXCL3_HUMAN (human, UniProt P19876 35-107)
Chain of CXCL3_HUMAN (P19876 35-107): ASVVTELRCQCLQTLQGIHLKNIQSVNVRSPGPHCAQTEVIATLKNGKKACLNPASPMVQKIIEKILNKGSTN

Chain of CXCL1_HUMAN (P09341 35-107): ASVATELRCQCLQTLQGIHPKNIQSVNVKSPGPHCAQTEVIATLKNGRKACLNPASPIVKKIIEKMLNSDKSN
Chain of CXCL8_HUMAN (P10145 28-99): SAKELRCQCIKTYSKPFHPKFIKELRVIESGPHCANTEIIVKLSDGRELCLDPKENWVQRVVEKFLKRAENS
Chain of CXCL10_HUMAN (P02778 22-98): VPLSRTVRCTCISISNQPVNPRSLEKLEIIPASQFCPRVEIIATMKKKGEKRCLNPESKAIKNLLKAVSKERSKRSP

B1: P1095_IXORI (other)
chain: HSPVAGSEVQKLTSDPNDDIDVSYCGMNCTVVNGKSDECSENCKCLHEGDDPKGICVAITYFGDWGDPNDDPKINEATPQTQIFEKKRK
Kd (CXCL8_HUMAN): 0.11 µM

B2: P675_IXORI (other)
chain: GSNQLSGPQSSANSNDAVFCDTNCTQGTDGAWSGCRGDCFCVHVGNSTEGRCIELIGDFDYSTPGAED
Kd (CXCL5): 0.0342 µM | Kd (CXCL2): 0.0248 µM | Kd (CXCL6): 0.00768 µM | Kd (CXCL4): 0.422 µM | Kd (CXCL10_HUMAN): 3.12 µM | Kd (CXCL11_HUMAN): 0.00773 µM | Kd (CXCL13): 0.582 µM | Kd (CXCL1_HUMAN): 0.00999 µM | Kd (CXCL3_HUMAN): 0.0357 µM

B3: P1074_IXORI (other)
chain: GSKESSAHQSSDDSIKAEFCDAKCTMKTDGKWTQCHGGCFCVHVGNETEGRCMRLDGDYDYPSTQPEE
Kd (CXCL5): 0.0427 µM | Kd (CXCL4): 0.157 µM | Kd (CXCL10_HUMAN): 0.0407 µM | Kd (CXCL11_HUMAN): 0.012 µM | Kd (CXCL13): 0.0958 µM | Kd (CXCL1_HUMAN): 0.0278 µM | Kd (CXCL3_HUMAN): 0.024 µM

B4: P1166_IXORI (other)
chain: GPETKEDKKSDVYELFTVEYCGTNCTLLTNGRWTACTGKKGTCRCYHESGEKVGLCLSTEYTDFSEYPNPKSSEIDAAAPLPRETH
Kd (CXCL2): 0.149 µM | Kd (CXCL8_HUMAN): 0.129 µM | Kd (CXCL1_HUMAN): 0.0129 µM

B5: P1128_IXORI (other)
chain: KDDEHFSVDYCGMNCTQQEDGSWTACSGRNEECRCYHESGKKNGLCLSTTYIDFSQYGNPSDSDIAAASPRP
Kd (CXCL5): 0.0622 µM | Kd (CXCL2): 0.00557 µM | Kd (CXCL8_HUMAN): 0.0023 µM | Kd (CXCL1_HUMAN): 0.000722 µM | Kd (CXCL3_HUMAN): 0.0385 µM

B6: P1104_IXORI (other)
chain: ESKEASASQGPGKSFKVEFCETNCTENNGVWSGCTGDCICVSVGDSKEGRCMDLGDKVIDTPVAQG
Kd (CXCL5): 0.245 µM | Kd (CXCL2): 0.0823 µM | Kd (CXCL6): 0.0343 µM | Kd (CXCL13): 0.22 µM | Kd (CXCL1_HUMAN): 0.0144 µM | Kd (CXCL3_HUMAN): 0.0437 µM

B7: P1090_IXORI (other)
chain: GSKELSGPESSENSIEAAFCDTNCTEGTDGVWSGCSAGCFCVHVGNSTVGRCMTFNGVDGG
Kd (CXCL5): 0.043 µM | Kd (CXCL2): 0.00303 µM | Kd (CXCL6): 0.00282 µM | Kd (CXCL10_HUMAN): 0.0239 µM | Kd (CXCL11_HUMAN): 0.00385 µM | Kd (CXCL13): 0.0125 µM | Kd (CXCL1_HUMAN): 0.00355 µM | Kd (CXCL3_HUMAN): 0.00767 µM

B8: P942_IXORI (other)
chain: NQLSGPQSSANSNEAVFCDTNCTQGTDEAWSGCRGDCFCVYVGNSTEGRCMMLSGDFDYSTPGAED
Kd (CXCL5): 0.0211 µM | Kd (CXCL2): 0.00648 µM | Kd (CXCL6): 0.00728 µM | Kd (CXCL4): 0.148 µM | Kd (CXCL10_HUMAN): 0.133 µM | Kd (CXCL11_HUMAN): 0.0124 µM | Kd (CXCL13): 0.0395 µM | Kd (CXCL1_HUMAN): 0.00309 µM | Kd (CXCL3_HUMAN): 0.00504 µM

B9: P1100_IXORI (other)
chain: GSKGSSASQSSDNSVVAKFCDTNCTINEGGKWTECKGGCFCVHVGNETVGRCMKLDGDYDYPSPKPEE
Kd (CXCL5): 0.0508 µM | Kd (CXCL2): 0.185 µM | Kd (CXCL6): 0.0152 µM | Kd (CXCL10_HUMAN): 0.38 µM | Kd (CXCL11_HUMAN): 0.102 µM | Kd (CXCL13): 0.714 µM | Kd (CXCL1_HUMAN): 0.0499 µM | Kd (CXCL3_HUMAN): 0.0559 µM

B10: P1096_IXORI (other)
chain: HTTVTGSVEGKPNNPNEDIEVSYCRMNCTVENGVSSACSGDCVCVHRDNEPNGICVEITYFGDFGDPSQDPSIDEAAPRESVSKRRSNGES
Kd (CXCL8_HUMAN): 0.0447 µM

B11: P1168_IXORI (other)
chain: GQDTDGKEKSDEYELFTVEYCGTNCTQLENGSWTACTGKNGTCRCFHENDKKVGLCLSTEYTDFSEYPDPNSEEIKAASPLP
Kd (CXCL2): 0.0299 µM | Kd (CXCL8_HUMAN): 0.0207 µM | Kd (CXCL1_HUMAN): 0.00591 µM

B12: P1080_IXORI (other)
chain: SAGSKGSSAPQSSGDSVVAEFCDTNCTMKKDGKWTECNGDCFCVHVGNETVGRCMRLDGDYDYTSSKTTRRNKKTRNGLCRLDRNRTTVDYPERNTREP
Kd (CXCL5): 0.0566 µM | Kd (CXCL2): 0.392 µM | Kd (CXCL6): 0.011 µM | Kd (CXCL4): 2.31 µM | Kd (CXCL10_HUMAN): 1.26 µM | Kd (CXCL11_HUMAN): 0.0733 µM | Kd (CXCL13): 1.11 µM | Kd (CXCL1_HUMAN): 0.0551 µM | Kd (CXCL3_HUMAN): 0.124 µM

B13: P1124_IXORI (other)
chain: DSKGTSDSQDSTKSIKVDFCETNCTKTDGGWTGCTGDCICVSVGDSIEGRCMDFG
Kd (CXCL5): 0.0264 µM | Kd (CXCL2): 0.0138 µM | Kd (CXCL6): 0.231 µM | Kd (CXCL13): 0.256 µM | Kd (CXCL1_HUMAN): 0.00761 µM | Kd (CXCL3_HUMAN): 0.00884 µM

B14: P1134_IXORI (other)
chain: NEEVFTVEYCGMNCTQKSDGTWTECSGKNKDCRCYHESDAREGLCLSTEYTDFSQFETPSNSDLEAATPRPRKTLYPVRNPHGPKTRGLGYDKRILRDRVKFLI
Kd (CXCL1_HUMAN): 0.0273 µM

B15: P1086_IXORI (other)
chain: GSKGQRASQVSETSITAEFCDTSCTQGTDKTWSGCSGDCFCVHVGNDTEGRCMRWDGDYPSAEEEE
Kd (CXCL5): 0.026 µM | Kd (CXCL2): 0.034 µM | Kd (CXCL6): 0.0107 µM | Kd (CXCL10_HUMAN): 0.0187 µM | Kd (CXCL13): 0.0227 µM | Kd (CXCL1_HUMAN): 0.0114 µM | Kd (CXCL3_HUMAN): 0.0152 µM

B16: P1170_IXORI (other)
chain: LGDEDQLFSVEYCGTNCTQQDDGKWTPCSGKNGKCKCYHEDGKRYGLCLYTEYTDFSQYPNPEGSEIENTRPRP
Kd (CXCL8_HUMAN): 0.0123 µM | Kd (CXCL1_HUMAN): 0.0596 µM

B17: P1162_IXORI (other)
chain: LNDEELFTVDYCGTNCTQQPNGSWTTCPGNCSCYHEDGKTDGFCLSTEYTDFTQFPNLTSEEMDAATPRPE
Kd (CXCL5): 0.0321 µM | Kd (CXCL2): 0.0144 µM | Kd (CXCL8_HUMAN): 0.0122 µM | Kd (CXCL1_HUMAN): 0.00266 µM | Kd (CXCL3_HUMAN): 0.0601 µM

B18: P1172_IXORI (other)
chain: LHEDEIFTVDYCGTNCTKQSNGSWTTCPGNCSCYHEDGKTDGFCLSTEYTDFTQFPNLTSEEMDAATPRPE
Kd (CXCL5): 0.0593 µM | Kd (CXCL2): 0.026 µM | Kd (CXCL8_HUMAN): 0.0267 µM | Kd (CXCL1_HUMAN): 0.00559 µM

B19: P1132_IXORI (other)
chain: LSDEDELFSVEYCGTNCTKQDTGSWTTCSGNCTCYHEDGKKVGLCLSTEYTDFTKFPKPTSEEIANARPLPKREKTLN
Kd (CXCL5): 0.152 µM | Kd (CXCL2): 0.0186 µM | Kd (CXCL8_HUMAN): 0.0328 µM | Kd (CXCL1_HUMAN): 0.0119 µM

B20: P1077_IXORI (other)
chain: GSKQLIGPQSSTNSIKAEFCDTNCTAGTNGIWNGCSGDCFCTHVGNSTEGRCMKITGFDEYPTSEAEE
Kd (CXCL5): 0.0557 µM | Kd (CXCL2): 0.264 µM | Kd (CXCL6): 0.0293 µM | Kd (CXCL11_HUMAN): 0.538 µM | Kd (CXCL1_HUMAN): 0.00753 µM | Kd (CXCL3_HUMAN): 0.016 µM

B21: EVA3_RHISA (protein)
chain: LVSTIESRTSGDGADNFDVVSCNKNCTSGQNECPEGCFCGLLGQNKKGHCYKIIGNLSGEPPVVRR
Kd (CXCL8_HUMAN): 0.00257 µM | Kd (CXCL1_HUMAN): 0.00573 µM | Kd (CXCL3_HUMAN): 0.00737 µM

B22: P1229_IXORI (other)
chain: DDEFFTVDYCGMNCTLQQDGSWTPCTQKNAECKCYHESGSSVGLCLSTAYTDFNQFGDPNNSDLDAATPRHPDASSR
Kd (CXCL8_HUMAN): 0.0307 µM | Kd (CXCL1_HUMAN): 0.0134 µM

B23: P1174_IXORI (other)
chain: LNNENELFSVEYCGANCTQQDNGSWTKCKGNCTCYHEDGKRYGLCLSTEYTDFTQFPKPTSEEIADASPRPKETNSH
Kd (CXCL8_HUMAN): 0.0817 µM | Kd (CXCL1_HUMAN): 0.0154 µM

B24: P1078_IXORI (other)
chain: GSKGSSAQQSSHDSIKAEFCETNCTMKTGGKWTQCHGGCFCVHVGNETVGRCIKLDGDYDYPSSKHEE
Kd (CXCL5): 0.0392 µM | Kd (CXCL2): 0.0683 µM | Kd (CXCL6): 0.00924 µM | Kd (CXCL11_HUMAN): 0.0167 µM | Kd (CXCL13): 0.255 µM | Kd (CXCL1_HUMAN): 0.00635 µM | Kd (CXCL3_HUMAN): 0.0438 µM

B25: P1127_IXORI (other)
chain: AGKDDEHFSVDYCGMNCTQQEDGSWTACSGRNGECRCYHESGKRSGLCLSTTYIDFSEYGNLSDSDIAAASPRLSMKESH
Kd (CXCL5): 0.0266 µM | Kd (CXCL2): 0.0278 µM | Kd (CXCL8_HUMAN): 0.0133 µM | Kd (CXCL1_HUMAN): 0.00142 µM | Kd (CXCL3_HUMAN): 0.0688 µM

B26: P458_IXORI (other)
chain: GSKQPGAAGSSSDSVEAVFCPTNCTKGTNGAWSGCSDDCICVHVGENTEGSCMKFSGDYDYPTPEA
Kd (CXCL5): 0.0191 µM | Kd (CXCL2): 0.00455 µM | Kd (CXCL6): 0.00497 µM | Kd (CXCL13): 0.0138 µM | Kd (CXCL1_HUMAN): 0.0166 µM | Kd (CXCL3_HUMAN): 0.00783 µM
